How the values were obtained:
Conditions in all cases: 20 nM; 72 h
MCF10A [1] = test: 5+ nucleoli phenotype percent effect (relative to siNT 0% and siKIF11 100%); higher = more cells with five or more nucleoli
Method: (§1)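 After 72 h, cells were fixed and stained with Hoechst and anti-fibrillarin, and nucleoli per nucleus were counted with CellProfiler. Values are plate-adjusted percent effect for the one-nucleolus and 5+ nucleoli phenotypes, normalised to siNT (0%) and to the positive controls siNOL11 or siKIF11 (100%), as the mean of biological triplicates. Percent viability is the nuclei count relative to siNT.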

MCF10A [2] = test: percent viability (nuclei count relative to siNT); higher = more viable cells
Method: as §1

MCF10A [3] = test: one-nucleolus phenotype percent effect (relative to siNT 0% and siNOL11 100%); higher = more cells with one nucleolus (ribosome biogenesis inhibition)
Method: as §1

| Sequence | 5+ nucleoli phenotype percent effect (MCF10A [1]) [%] | percent viability (MCF10A [2]) [%] | one-nucleolus phenotype percent effect (MCF10A [3]) [%] |
| --- | --- | --- | --- |
| GGUUGGGCAGUGAGGAGGGUGUGA [hsa-miR-3147] | 31 | 26 | -13.3 |
| UUAGUGCAUAGUCUUUGGUCU [hsa-miR-4671-3p] | 47.6 | 85.2 | -12 |
| CCUGAGAAAAGGGCCAA [hsa-miR-4251] | -4.33 | 31.3 | 15.3 |
| UCCAUGUUUCCUUCCCCCUUCU [hsa-miR-4716-5p] | -43.5 | 28.8 | 45.4 |
| GGUGGGGCAAUGGGAUCAGGU [hsa-miR-3151] | 9.32 | 33.9 | -3.87 |
| UUCCUAUGCAUAUACUUCUUUG [hsa-miR-202-5p] | 12.8 | 72.7 | -12.4 |
| CCUGCAACUUUGCCUGAUCAGA [hsa-miR-4772-3p] | 16.6 | 47.3 | -15.1 |
| UAGCAGCACAUAAUGGUUUGUG [hsa-miR-15a-5p] | -43.7 | 17.3 | 40.1 |
| CUGGUACAGGCCUGGGGGACAG [hsa-miR-150-3p] | 1.02 | 66.2 | 11 |
| CUCAAGUAGUCUGACCAGGGGA [hsa-miR-4465] | 21.6 | 67 | -5.88 |
| AAAGUUCUGAGACACUCCGACU [hsa-miR-148a-5p] | 9.44 | 89 | -5.53 |
| CUCUAGAGGGAAGCACUUUCUC [hsa-miR-518f-5p] | 3.35 | 33.5 | 8.67 |
| AGUUGCCAGGGCUGCCUUUGGU [hsa-miR-6501-5p] | -26.4 | 47.2 | 5.87 |
| UUCAGCCAGGCUAGUGCAGUCU [hsa-miR-3157-5p] | -4.24 | 20.1 | 7.66 |
| AGCCGCUCUUCUCCCUGCCCACA [hsa-miR-6743-3p] | 35.5 | 58 | -1.42 |
| CCUCCCUGCCCGCCUCUCUGCAG [hsa-miR-7113-3p] | 57.3 | 70.5 | -20.6 |
| AGAGUCUUGUGAUGUCUUGC [hsa-miR-924] | -44.9 | 42.5 | 24.7 |
| UAGCACCAUUUGAAAUCGGUUA [hsa-miR-29c-3p] | 38 | 138 | -21 |

| Sequence | 5+ nucleoli phenotype percent effect (MCF10A [1]) [%] | percent viability (MCF10A [2]) [%] | one-nucleolus phenotype percent effect (MCF10A [3]) [%] |
| --- | --- | --- | --- |
| GUGGUUAUCCCUGCUGUGUUCG [hsa-miR-487a-5p] | 24.8 | 42 | -14.4 |
| GUGAGUGGGAGCCCCAGUGUGUG [hsa-miR-1238-5p] | 22.1 | 95.1 | -21.4 |
| CCUGGACACCGCUCAGCCGGCCG [hsa-miR-4638-3p] | 8.98 | 106 | -15.8 |
| AAACACCAUUGUCACACUCCAC [hsa-miR-3591-3p] | -27 | 27.5 | 32.5 |
| ACUGUAAACGCUUUCUGAUG [hsa-miR-3607-3p] | 42.2 | 124 | -18.5 |
| UCUAUUCCCCACUCUCCCCAG [hsa-miR-6731-3p] | -13.6 | 32.5 | -0.0733 |
| AGGAAGCCCUGGAGGGGCUGGAG [hsa-miR-671-5p] | -27.7 | 45.3 | 58.7 |
| AUUGCCUCUGUUCUAACACAAG [hsa-miR-3152-5p] | 38.3 | 129 | -11.4 |
| UCCAGGCAGGAGCCGGACUGGA [hsa-miR-4673] | 14.9 | 62.5 | -17.9 |
| CUAAUAGUAUCUACCACAAUAAA [hsa-miR-633] | 35.1 | 107 | -23.4 |
| AGCUACAUUGUCUGCUGGGUUUC [hsa-miR-221-3p] | -17.8 | 59.9 | 4 |
| UAGCCCCCAGGCUUCACUUGGCG [hsa-miR-3943] | -18.2 | 19.1 | 8.41 |
| AGACAUCAAGAUCAGUCCCAAA [hsa-miR-3913-3p] | 10.4 | 21.7 | 34.3 |
| UGCCUCCUUGGUCUCCGGCAG [hsa-miR-6791-3p] | -9.62 | 22.2 | -3.74 |
| UUUGGACAGAAAACACGCAGGU [hsa-miR-4520b-3p] | 50 | 87 | -21.6 |
| CCCUCAUCUUCCCCUCCUUUC [hsa-miR-6891-3p] | -10.8 | 35.9 | 36.8 |
| GCUGGUCUGCGUGGUGCUCGG [hsa-miR-3663-5p] | 52.4 | 123 | -23.3 |
| AUAGCAGCAUGAACCUGUCUCA [hsa-miR-4524a-5p] | -12.6 | 24.9 | 21.6 |
